# Data published in publication PMC3574636.
# Biological target: microtubules (tubulin purified from bovine brain) (bovine) (UniProt Q6B856)
# Experiment: co-sedimentation
# Chain of microtubules (tubulin purified from bovine brain) (bovine) (Q6B856 whole entry, looked up): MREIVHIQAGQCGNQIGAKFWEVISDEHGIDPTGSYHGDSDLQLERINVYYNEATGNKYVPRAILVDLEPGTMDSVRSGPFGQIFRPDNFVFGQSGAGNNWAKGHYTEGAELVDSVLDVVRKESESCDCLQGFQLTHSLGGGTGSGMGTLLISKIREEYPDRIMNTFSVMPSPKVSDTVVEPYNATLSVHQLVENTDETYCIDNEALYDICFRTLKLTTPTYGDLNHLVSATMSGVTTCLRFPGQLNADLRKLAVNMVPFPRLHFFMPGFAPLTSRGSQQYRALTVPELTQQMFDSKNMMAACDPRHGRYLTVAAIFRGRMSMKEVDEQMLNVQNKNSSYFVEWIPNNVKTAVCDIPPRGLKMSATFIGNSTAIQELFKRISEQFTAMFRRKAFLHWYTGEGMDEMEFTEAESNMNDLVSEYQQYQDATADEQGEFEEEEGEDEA
substance,measurement,value
"native kinesin (kinesin-1, conventional kinesin) purified from bovine brain (complex)",active fraction by microtubule pulldown (no CK2),20%
same,"percent of motor bound to microtubules (after CK2, 3:1 kinase:motor)",80%
